Measured values as given in US20250129174A1 (LTZ THERAPEUTICS, published 2025).

Assays:
human CCR8 [1] = molecular target: T1, human CCR8 (human, UniProt P51685 1-355); assay: flow cytometry on CHO cells expressing human CCR8, MFI of PE
T1 construct: whole, on cells; The construct expressed in the CHO cells is not described further; also called hCCR8; C-C motif chemokine receptor 8
Experimental: (§1) Binding abilities of 4-1BB×CCR8 bispecific antibodies to CHO cells expressing human CCR8 were evaluated. About 50,000 CHO cells expressing human CCR8 were incubated with serially diluted antibodies (4-1BB-2×CCR8-2 (LC1) BsAb, 4-1BB-2×CCR8-2 (LC2) BsAb and 4-1BB-2×CCR8-2 (HC) BsAb) in FACS buffer (PBS+0.5% BSA) for 30 minutes on ice. After incubation, cells were washed twice and detected with anti-human The mean fluorescence intensity (MFI of PE) of each antibody was determined and plotted using GraphPad Prism software (Version 9.4.1; GraphPad Software Inc.). As shown in FIGS. 13A-13B, all the three 4-1BB×CCR8 bispecific antibodies bind to CHO cells expressing human CCR8 very well.

human CCR8 [2] = molecular target: T1, human CCR8; assay: flow cytometry on CHO cells expressing human CCR8, percent of positive cells
Experimental: as §1, with “After incubation, cells were washed twice and detected with anti-human The mean fluorescence intensity (MFI of PE) of each antibody was determined and plotted using GraphPad Prism software (Version 9.4.1; GraphPad Software Inc.).” left out

human 4-1BB = molecular target: T2, human 4-1BB (human, UniProt Q07011 24-255); assay: flow cytometry on CHO cells expressing human 4-1BB, anti-human IgG PE secondary antibody, percent of positive cells
T2 construct: whole, on cells; The construct expressed in the CHO cells is not described further; also called h4-1BB; CD137
T2 sequence (Q07011 24-255): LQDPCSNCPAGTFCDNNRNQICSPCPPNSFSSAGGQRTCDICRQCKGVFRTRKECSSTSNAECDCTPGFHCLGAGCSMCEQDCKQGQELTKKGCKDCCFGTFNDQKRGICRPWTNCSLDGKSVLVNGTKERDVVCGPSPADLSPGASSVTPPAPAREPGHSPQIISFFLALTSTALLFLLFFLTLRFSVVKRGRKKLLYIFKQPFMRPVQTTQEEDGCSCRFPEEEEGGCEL
Experimental: Binding abilities of 4-1BB×CCR8 bispecific antibodies (BsAb) to CHO cells expressing human 4-1BB were evaluated. About 50,000 CHO cells expressing human 4-1BB were incubated with serially diluted antibodies (4-1BB-2×CCR8-2 (LC1) BsAb, 4-1BB-2×CCR8-2 (LC2) BsAb, and 4-1BB-2×CCR8-2 (HC) BsAb) in FACS buffer (PBS+0.5% BSA) for 30 minutes on ice. After incubation, cells were washed twice and detected with anti-human IgG PE secondary antibody (Jackson ImmunoResearch, Cat. #: 109-116-170). […] As shown in FIGS. 12A-12B, all the three 4-1BB×CCR8 bispecific antibodies bind to CHO cells expressing human 4-1BB very well.

T1 sequence (P51685 whole entry): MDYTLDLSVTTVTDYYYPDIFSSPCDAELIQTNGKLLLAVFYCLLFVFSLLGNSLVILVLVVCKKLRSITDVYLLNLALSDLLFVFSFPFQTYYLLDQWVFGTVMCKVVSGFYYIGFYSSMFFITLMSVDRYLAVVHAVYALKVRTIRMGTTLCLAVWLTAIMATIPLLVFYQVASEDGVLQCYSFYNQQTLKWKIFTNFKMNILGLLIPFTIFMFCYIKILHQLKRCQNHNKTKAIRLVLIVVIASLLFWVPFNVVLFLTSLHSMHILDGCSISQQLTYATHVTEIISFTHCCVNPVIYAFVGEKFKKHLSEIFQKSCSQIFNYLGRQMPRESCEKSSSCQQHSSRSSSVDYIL

Row | Binder | EC50 (read off the curve) (human CCR8 [1]) [nM] | EC50 (read off the curve) (human CCR8 [2]) [nM] | EC50 (read off the curve) (human 4-1BB) [nM] | binding result (human CCR8 [1])
1 | 4-1BB-2×CCR8-2 (LC1) BsAb (bispecific antibody, human IgG1, kappa, The light chain is the 4-1BB-2 scFv (VL-linker-VH) joined by a linker to the N-terminus of the CCR8-2 kappa light chain; also called 4-1BB-2×CCR8-2 (LC1) bispecific antibody) heavy: not shown light: DVVLTQSPLSLPVTLGQPASISCRSSQSLLDSDGNTYLYWFQQRPGQSPRRLIYLVSNLGSGVPDRFSGSGSGTDFTLKISRVEAEDVGVYYCMQPTHAPYTFGQGTKLEIKGGGGSGGGGSGGGGSGGGGSEVQLVQSGAEVKKPGSSVKVSCKASDYTFNDYWVSWVRQAPGQGLEWIGEIYPNSGATNFNGKFRGRATLTVDNSASTAYMELSSLRSEDTAVYYCTREYTRDWFAYWGQGTLVTVSSGGGGSGGGGSGGGGSDIVMTQTPLSLSVTPGQPASISCRSSQSLFHSSGNTYLHWYLQKPGQPPQLLIYKVSNRFSGVPDRFSGSGSGTDFTLKISRVEAEDVGVYYCSQSTHVPFTFGQGTKLEIKRTVAAPSVFIFPPSDEQLKSGTASVVCLLNNFYPREAKVQWKVDNALQSGNSQESVTEQDSKDSTYSLSSTLTLSKADYEKHKVYACEVTHQGLSSPVTKSFNRGEC | ~2 | ~0.3 | ~0.06 | –
2 | 4-1BB-2×CCR8-2 (LC2) BsAb (bispecific antibody, human IgG1, kappa, The light chain is the CCR8-2 kappa light chain with the 4-1BB-2 scFv (VL-linker-VH) joined by a linker to its C-terminus; also called 4-1BB-2×CCR8-2 (LC2) bispecific antibody) heavy: not shown light: DIVMTQTPLSLSVTPGQPASISCRSSQSLFHSSGNTYLHWYLQKPGQPPQLLIYKVSNRFSGVPDRFSGSGSGTDFTLKISRVEAEDVGVYYCSQSTHVPFTFGQGTKLEIKRTVAAPSVFIFPPSDEQLKSGTASVVCLLNNFYPREAKVQWKVDNALQSGNSQESVTEQDSKDSTYSLSSTLTLSKADYEKHKVYACEVTHQGLSSPVTKSFNRGECGGGGSGGGGSGGGGSDVVLTQSPLSLPVTLGQPASISCRSSQSLLDSDGNTYLYWFQQRPGQSPRRLIYLVSNLGSGVPDRFSGSGSGTDFTLKISRVEAEDVGVYYCMQPTHAPYTFGQGTKLEIKGGGGSGGGGSGGGGSGGGGSEVQLVQSGAEVKKPGSSVKVSCKASDYTFNDYWVSWVRQAPGQGLEWIGEIYPNSGATNFNGKFRGRATLTVDNSASTAYMELSSLRSEDTAVYYCTREYTRDWFAYWGQGTLVTVSS | – | – | ~0.7 | binds
3 | 4-1BB-2×CCR8-2 (HC) BsAb (bispecific antibody, human IgG1, kappa, The light chain is the CCR8-2 kappa light chain; also called 4-1BB-2×CCR8-2 (HC) bispecific antibody) heavy: not shown light: DIVMTQTPLSLSVTPGQPASISCRSSQSLFHSSGNTYLHWYLQKPGQPPQLLIYKVSNRFSGVPDRFSGSGSGTDFTLKISRVEAEDVGVYYCSQSTHVPFTFGQGTKLEIKRTVAAPSVFIFPPSDEQLKSGTASVVCLLNNFYPREAKVQWKVDNALQSGNSQESVTEQDSKDSTYSLSSTLTLSKADYEKHKVYACEVTHQGLSSPVTKSFNRGEC | – | – | ~0.7 | binds
